Measurements: paper PMC12172977

Biological target: CCHFV nucleocapsid protein (N protein) (Crimean-Congo hemorrhagic fever virus (strain 10200?)) (UniProt P89522)
Test: filter binding

Sequence of UniProt P89522 (P89522 whole entry): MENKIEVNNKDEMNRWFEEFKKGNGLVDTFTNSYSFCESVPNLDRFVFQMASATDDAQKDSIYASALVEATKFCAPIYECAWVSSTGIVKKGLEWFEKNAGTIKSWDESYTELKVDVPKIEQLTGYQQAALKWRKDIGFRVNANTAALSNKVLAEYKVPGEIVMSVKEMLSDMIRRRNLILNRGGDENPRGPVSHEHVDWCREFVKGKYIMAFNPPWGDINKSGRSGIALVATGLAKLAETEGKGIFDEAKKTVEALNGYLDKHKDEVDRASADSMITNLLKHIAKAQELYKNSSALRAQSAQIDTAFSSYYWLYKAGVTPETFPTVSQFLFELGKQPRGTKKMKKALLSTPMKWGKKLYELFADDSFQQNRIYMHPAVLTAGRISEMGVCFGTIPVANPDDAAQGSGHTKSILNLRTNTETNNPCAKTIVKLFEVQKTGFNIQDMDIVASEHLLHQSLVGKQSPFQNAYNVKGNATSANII

Substance: Luc mRNA-1 (WT S-segment 5' UTR + luciferase ORF + truncated S 3' UTR)
- Kd: 0.042 µM
